According to article PMC3460896, “A Common Origin for the Bacterial Toxin-Antitoxin Systems parD and ccd, Suggested by Analyses of Toxin/Target and Toxin/Antitoxin Interactions” (PLoS ONE, 2012):
Where “and” joins values, the source holds several entries; their conditions need not be identical. Equal entries are not always repeated.

Assays:
[1] = molecular target: T1, CcdB toxin (plasmid F, UniProt P62554 1-101); experiment: native MS; CcdB:His6Kis molar ratios 2:1, 1:1 and 1:2 (Fig. 6A-C); 100 mM ammonium acetate pH 6.7; lowest protein concentration 10 µM; conditions: both partners purified
T1 construct: source: E. coli strain B462 carrying plasmid pULB2250, purified (Sephacryl S-200, MonoQ, CM-Sepharose)

[2] = molecular target: the molecule itself; experiment: as above
[3] = molecular target: T1, CcdB toxin; experiment: native MS; CcdB:His6Kis molar ratio 1:4 (Fig. 6D); 100 mM ammonium acetate pH 6.7; lowest protein concentration 5 µM; conditions: both partners purified
[4] = molecular target: T1, CcdB toxin; experiment: native MS; CcdB:CcdA molar ratios 1:2 and 1:4 (CcdA in excess); 100 mM ammonium acetate pH 6.7; lowest protein concentration 10 µM; conditions: both partners purified
[5] = molecular target: T1, CcdB toxin; experiment: native MS; CcdB:CcdA molar ratios 2:1 and 1:1 (CcdB equal to or in excess of CcdA); 100 mM ammonium acetate pH 6.7; lowest protein concentration 10 µM; conditions: both partners purified
[6] = molecular target: Kid toxin (plasmid R1) (UniProt P13976); experiment: native MS; Kid:CcdA ratios 2:1, 1:1 and 1:2; 100 mM ammonium acetate pH 6.7; lowest protein concentration 10 µM
Chain of Kid toxin (plasmid R1) (P13976 24-133): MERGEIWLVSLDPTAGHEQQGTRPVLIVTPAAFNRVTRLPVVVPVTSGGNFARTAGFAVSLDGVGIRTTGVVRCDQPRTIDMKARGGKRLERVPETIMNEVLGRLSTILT

T1 sequence (P62554 whole entry): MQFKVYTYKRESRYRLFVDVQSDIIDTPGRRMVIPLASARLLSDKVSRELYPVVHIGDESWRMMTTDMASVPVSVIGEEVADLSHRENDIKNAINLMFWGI

Row | Binder | stoichiometry N [1] | stoichiometry N [2] | stoichiometry N [3] | stoichiometry N [4] | stoichiometry N [5] | stoichiometry N (CcdA per Kid (1:2)) [6] | stoichiometry N (CcdA per Kid (2:2)) [6]
1 | His6-Kis antitoxin (natural protein, plasmid R1, UniProt P13975 1-85, looked up, also called HisKis; source: purified as described [12]) MHTTRLKRVGGSVMLTVPPALLNALSLGTDNEVGMVIDNGRLIVEPYRRPQYSLAELLAQCDPNAEISAEEREWLDAPATGQEEI | 1 His6Kis per CcdB (2:2) | 2 | 0.5 His6Kis per CcdB (1:2) |  |  |  | 
2 | CcdA antitoxin (natural protein, plasmid F, UniProt P62552 1-72, looked up, source: E. coli strain SG22623 carrying plasmid pKK223CcdA, purified as described previously [35]) MKQRITVTVDSDSYQLLKAYDVNISGLVSTTMQNEARRLRAERWKAENQEGMAEVARFIEMNGSFADENRDW |  |  |  | 1 CcdA per CcdB (2:2) | 0.5 CcdA per CcdB (1:2) and 0.5 CcdA per CcdB (2:4) | 0.5 | 1
